Experimental findings from patent US20160084839A1 (Merck Sharp & Dohme, published 2016) are described below.

The target in this assay is T1, human programmed death ligand 1 (PD-L1) (human, UniProt Q9NZQ7 19-290).
T1 construct: Endogenous PD-L1 on tumor, stromal and inflammatory cells in formalin-fixed, paraffin-embedded tumor tissue sections; 22C3 is described as an anti-human PD-L1 antibody; also called mature PD-L1; hPD-L1
The assay is described as follows: IHC on FFPE NSCLC tissue section.

T1 sequence (Q9NZQ7 19-290): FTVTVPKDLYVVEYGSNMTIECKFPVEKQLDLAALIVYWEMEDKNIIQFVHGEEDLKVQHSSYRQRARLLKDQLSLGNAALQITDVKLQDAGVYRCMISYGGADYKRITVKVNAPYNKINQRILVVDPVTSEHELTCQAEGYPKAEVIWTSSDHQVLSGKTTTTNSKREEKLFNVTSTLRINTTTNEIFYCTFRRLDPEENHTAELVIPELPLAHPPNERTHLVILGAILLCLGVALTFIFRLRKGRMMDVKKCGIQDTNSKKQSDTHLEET

B1: monoclonal antibody 22C3 (antibody, V domains shown)
VH: QVHLQQSGAELAKPGASVKMSCKASGYTFTSYWIHWIKQRPGQGLEWIGYINPSSGYHEYNQKFIDKATLTADRSSSTAYMHLTSLTSEDSAVYYCARSGWLIHGDYYFDFWGQGTTLTVSS
VL: DIVMSQSPSSLAVSAGEKVTMTCKSSQSLLHTSTRKNYLAWYQQKPGQSPKLLIYWASTRESGVPDRFTGSGSGTDFTLTISSVQAEDLAVYYCKQSYDVVTFGAGTKLELK
notes: Whole hybridoma antibody used as primary antibody in IHC; also called MEB037.22C3; PD-L1 22C3 antibody
Consider B1, for which the binding result is given as “binds”.
